Laboratory results reported in paper PMC9170038.

Molecular target: MS2 coat protein, dlFG mutant (Escherichia phage MS2, UniProt P03612, del68-81insG)
Test: 4 mM Mg2+; no ligand; RNA-MaP array; 100 mM Tris-HCl pH 7.5, 80 mM KCl, 4 mM MgCl2, 0.1 mg/mL BSA, 1 mM DTT, 0.01 mg/mL yeast tRNA, 0.01% Tween-20; protein 1.5 nM to 3 uM; 37 C (Table S3)
Conditions: chain copies: 2; label: tethered by stalled RNA polymerase

Binder | Kd
Eterna 7729933 (Exclusion - Tryptophan B) (ssRNA) RNA: GGAUAGGACACGGCCGCCACUUGCUAGGAUACUAGCAACAUUUCCUCUCAUGAGGAUCACCCAUGAAGGACCGGGUGUCCUAUCG | 20.8 nM
Eterna 7730917 (Exclusion - Tryptophan A) (ssRNA) RNA: AGACUGUCUUCGGACAGUCCGGACAGCCCGCGAGGACCGGUACGGCCGCCACUCGCGUGAGGAUCACCCAUGCGAGGCUGUCCGA | 34.7 nM
Eterna 7730095 (Same State - Theophylline B) (ssRNA) RNA: UGUAUGUGAUCUGAUACCAGUCCAACUGGUAAACCAUGAGGAUCACCCAUGGAAAAUUGGGACCCUUGGCAGCAGAUCGCAUACU | 310 nM
Eterna 7673920 (Same State - Theophylline B) (ssRNA) RNA: UGUAUGUGAUCUGAUACCAGCGUUGAUAACCUGAGGAUCACCCUGGUAAGGCGAAAGCCACGCCCUUGGCAGCAGAUCGCAUACU | 193 nM
Eterna 6429522 (Inverted Exclusion NG 3) (ssRNA) RNA: GUGGAUAGACGCCCACGUGAGACAUGAGGAUCACCCAUGUACAGAAGGUGGAGCGUUAAUGGUGCCAAGGAUAUGUACAUAAGG | 4.92 nM
Eterna 7745160 (Same State - Arginine B) (ssRNA) RNA: GUUAAGUCGCGAAGGAGCGCGAACUAACAACGCAGUGAUGUUGCGUUGUACGUAGUAUAAUCGCAGGUAGGUCGCGCGACAGGCC | > 3000 nM
Eterna 6439566 (Inverted Small Loop Same State NG 1) (ssRNA) RNA: GGACAUUUACAGAAGGGCAAGCUCGAAAGCGGAGAACGCGAACGAGCUUGCAGGAUAUGUUGAACAUGAGGAUCACCCAUGUCU | 8.1 nM
Eterna 6095017 (Exclusion NG 3) (ssRNA) RNA: AAGGACUGUAAUAAUGUAGAAAUACAUGAGGAUCACCCAUGUAAGGAUAUCGUCAGGAAUACUGACGAGAAGGUACAUCAGUCC | 16.5 nM
Eterna 7730292 (Same State - Arginine B) (ssRNA) RNA: UGUAUGGACUGAAGGAGCGGAAAAUAAACCUGAGGAUCACCCGGGUAAUAGGCGAAAGCCAUCCAGGUAGGUCGCAGUCCAUACU | 279 nM
Eterna 6428572 (Exclusion NG 2) (ssRNA) RNA: GUCUCCGCUCGAGGAUAUAGCUGCAUGUAGUGUCCUGAGGCACAUGAGGAUCACCCAUGUGUAGGCUAGAAGGCGACGGACACU | 11 nM
Eterna 6456081 (Exclusion NG 2) (ssRNA) RNA: GGAUAGGACAGAGGAUAUACGUGCUAGAGAUACUAGCAAAAUUUCCACACAUGAGGAUCACCCAUGUAGAAGGCUGUCCUAUCG | 5.84 nM
Eterna 5789023 (Sensor v3, turn-off variant 2) (ssRNA) RNA: ACAAGCUUUUUGUUCGUCUUAUAAAAUCCUAAGAGGAAAACAUGAGGAUCACCCAUGUAACAAAGACGGACUCAUGU | 13 nM
Eterna 1225 (Exclusion - Tryptophan A) (ssRNA) RNA: GGAGGCCAGGCCUGCGAAGUGAUGUUUUGACGAGGACCGGUACGGCCGCCACUCGAAUGUUCUAUCAUCGUACGAACUUCUGCGU | > 3000 nM
Eterna 7691377 (Same State - Tryptophan B) (ssRNA) RNA: UAUCUAUGCUCGGCCGCCACUAGGACCGGGAGGUAACUAGUGAUGUUAGUAUCUUCGGCCGCCACUAGGACCGGGAGUGUAGAUA | > 3000 nM
Eterna 9910 (Sensor v3, turn-off variant 1) (ssRNA) RNA: GAUUAUGCAAGCUUUCGGGACAUGAGGAUCACCCAUGUUCGUCUUAUUGAUCUAGGUACGCUGACGUACCUAGAUCU | 16.5 nM
Eterna 7739340 (Same State - Theophylline A) (ssRNA) RNA: ACCAUCAAAGAUGGCCAGGACUCAACUGAUACCAGAGUGGAGACACUCCCUUGGCAGCAGGUGAGUGAUGUUCACGAGUCCUGGA | > 3000 nM
Eterna 5982897 (Exclusion 6) (ssRNA) RNA: GCAUGCUCCGAGGAUAUCGAAGCUAAUUAUGCACGAGAAGGCGGAACAUGAGGAUCACCCAUGUGAUGCCUAAA | 14.4 nM
Eterna 1038 (Exclusion - FMN A) (ssRNA) RNA: UCACCGCCUAGUGAUGUUACGCGACUCAGAAAGGAUAUAAUCAAUCUUAGAAGGUUCACACCGUAUGGAUAUUAUCUAUCUCGUU | > 3000 nM
Eterna 7736465 (Same State - FMN A) (ssRNA) RNA: UUUCUUUUCUUUUGCGAUCCUAUCCCUUAUAAGGAUAUCUAGAAAUAGAGAAGGUAUGCAGUGAUGUUGCUUGGGAUAGGAUCGC | > 3000 nM
Eterna 7739457 (Exclusion - Theophylline B) (ssRNA) RNA: UUAUAUAUAUUAGAUACCAGUUUAAUGGAAACAAAUUAUGUUAUGAGUGAUGUUCAUGUAAGCCCUUGGCAGCUGGUAUGGGUUU | > 3000 nM
Eterna 7734716 (Exclusion - FMN B) (ssRNA) RNA: GGAUAGGACACAGGAUAUGGUAGUGAUGUUACCAAACUGGUUAAACAUGUCAGAAAACUGGCAUGACCAGAAGGGUGUCCUAUCG | > 3000 nM

Binder | Kd
Eterna 7734762 (Same State - FMN B) (ssRNA) RNA: UGUACCGAGUAAGGAUAUGUCGUCGAAAGACGAAAUGGAGUGAUGUUCCUUAAACUGCGAAAGCAGACAGAAGGUACUUGGUACU | > 3000 nM
Eterna 7609491 (Same State - Tryptophan A) (ssRNA) RNA: ACAUGAGGAUCACCCAUGUUUGUUGUUCCUCGAGGACCGGUACGGCCGCCACUCGAACGAGUGGCACGCGAGUGCGCACUCGCGU | 12.3 nM
Eterna 7716400 (Same State - Theophylline B) (ssRNA) RNA: AUUUGUUUAUGUGAUACCAGACUAAGCAGUGAUGUUGCUUUUAUUUUUGAAUUUUAAAUAGUCCCUUGGCAGCACUAUGUCUGUA | > 3000 nM
Eterna 7741440 (Same State - Theophylline A) (ssRNA) RNA: GGAGUGAUGUUCCAUUUUUAAAUCUCCGAUACCAGUAUGGAAACAUACCCUUGGCAGCGGUAAACCGCAGAUUAGGAAACUAGUC | > 3000 nM
Eterna 7696080 (Exclusion - Tryptophan B) (ssRNA) RNA: UGAUACCAGACGGCCGCCACUAGGACCGGGAGUGAUGUUCCCAAUUUAAAAUGCUCGGCCGCCACUAGGACCGGGUCUGGUAUCU | > 3000 nM
Eterna 7722704 (Same State - FMN A) (ssRNA) RNA: GGCAGUGAUGUUGCCUAAGCAACGCAUGCAGAGGAUAUUCGUUCGGGAAGAAGGCUGCAGCGUUCUCUCGUCAGUGAUGUUGGCG | > 3000 nM
Eterna 6095051 (Same State NG 3) (ssRNA) RNA: UUAACAUGAGGAUCACCCAUGUAAAGAACGGUUAAUUAAAGUGAGGAUAUACAAAAUUUUAUAUUGUAGAAGGCACUGGGUACA | 19.5 nM
Eterna 6433398 (Small Loop Exclusion NG 3) (ssRNA) RNA: UGAUCGAGAGAUCUUAGAUUCUGGUAGGAUAUACAUUAUAAAAGCUUUACAUGAGGAUCACCCAUGUAGAAGGACUAGAGUCUA | 6.84 nM
Eterna 6073973 (Exclusion 2) (ssRNA) RNA: UAGAUGGGAGGAUAUACGUAUAUGCAGGUUCGUGUGGUGCUACAUGAGGAUCACCCAUGUAGAAGGCCCGUCUU | 19.1 nM
Eterna 6146924 (Exclusion NG 1) (ssRNA) RNA: GUGACGGAUGUAGGAUAUGCUGACCAAUGGUCAGCAGAAGGACAUGAGGAUCACCCAUGUCAUCCUUAUAAUAAAUACCGUCAC | 13.7 nM
Eterna 1619 (Same State - Theophylline A) (ssRNA) RNA: GUGUAAGUGAUGUUUGCACACACGUCGGAUACCAGAGACUUUAGCCUCCCUUGGCAGCCGCCGGCCAUAAGAGCAAGUCGAUUUA | > 3000 nM
Eterna 5984275 (Exclusion 4) (ssRNA) RNA: AUUGUGUGAGGAUAUUAGCAGUAGACGAAUGGAGUCGUGGCUGAGAAGGCACAUGAGGAUCACCCAUGUUCCUU | 16.8 nM
Eterna 6381991 (Exclusion NG 1) (ssRNA) RNA: AUGCUUUAUGUAGGAUAUGCAUACGGUACGUAUGCAGAAGGACAUGAGGAUCACCCAUGUAAAUUAUUAUUACAUAUCAUACAU | 10.9 nM
Eterna 6441202 (Exclusion NG 1) (ssRNA) RNA: ACAUUUUAUGCAGGAUAUUGACAUAGGAUUAAACAAGAAGGGCAUUACAUGAGGAUCACCCAUGUUUUAUUGGUAUAUAAGUUC | 15.5 nM
Eterna 7610184 (Exclusion - Tryptophan B) (ssRNA) RNA: GGAGCUACGUCGGCCGCCACUAGCGGGUAUUGCGUGUACAUGAGGAUCACCCAUGUAAUACGGCCUAGGACCGGGACGUAGCUCC | 12 nM
Eterna 7758792 (Exclusion - Tryptophan B) (ssRNA) RNA: UGAUACCAGACGGCCGCCACUCCCGUAAGUCAAAGACUUACGAAGAGGGUUUUUCAGUGAUGUUGGAGGACCGGGUCUGGUAUCU | > 3000 nM
Eterna 6055371 (Brourd's mod of Exclusion 4) (ssRNA) RNA: GAUCGCCAUGUCAGGAUAUCUUGUAUACCCACGUUAGAGAAGGGACAUGAGGAUCACCCAUGUACCCUGGUUUU | 15.4 nM
Eterna 5979585 (Sensor, turn-off variant 1) (ssRNA) RNA: UACACUGCAUGAGGAUCAAACAUGAGGAUCACCCAUGUAUAGCAGGCUUUUUGUACGUCUUAUAAUUAUGUAGUGUA | 15.1 nM
Eterna 7653871 (Same State - Theophylline B) (ssRNA) RNA: UGUAUGUGAUUUGAUACCAGACCAGCUGGUGGUGCAUGAGGAACACCCAUGCAGGUUUGGGUCCCUUGGCAGCAAAUCGCAUACU | 145 nM
Eterna 7653873 (Same State - Theophylline B) (ssRNA) RNA: UGUAUGUGAUUUGAUACCAGACCAGCUGGUGGUCCAUGAGGAACACCCAUGGAGGUUUGGGUCCCUUGGCAGCAAAUCGCAUACU | 83.2 nM
Eterna 7675501 (Same State - Theophylline B) (ssRNA) RNA: CCAUCGCUAUUCGAUACCAGUCAUAAAAUCUUUGGUUAAAUAAAGGAGUGAUGUUCCAAAGACCCUUGGCAGCGAAUAGUGAUGG | > 3000 nM
